From the DeepSol protein solubility set

Experiment: soluble on expression in E. coli; label from the status in PepcDB or PDB records

Row | Sequence | soluble on expression in E. coli
1 | MNENWNWSLVDKVVYINLKERTDRNEHIKKELEKVCFPPEKIIRFEAIRAGSGFIGCAKSHLAVLKMAQENNWRNILILEDDMVFEDDDETIIRTNNFLSKLNNIHWDAAFLSASYYIVNAIDDNFFKVNFAYLANSYLVNNHYYEKLINNYTESVQRLTNGESSSEYGLDSNWLKIMKIDNWYGIYPVIGYQRTDISDIEYKEIDRTHQFTRTFDKMKAYGSK | soluble
2 | MISIPKDEFQQIFVKDLMISSEKVAHVQIGNGLEHALLVLVKSGYSAIPVLDPMYKLHGLISTAMILDGILGLERIEFERLEEMKVEQVMKQDIPVLKLEDSFAKALEMTIDHPFICAVNEDGYFEGILTRRAILKLLNKKVRQHNR | not soluble
3 | MSLKAVSEADIQAALKEGGTITVWAWEPTLKQVATDFEKEHPGVKVDLVNAGTNKDQYTALQNAISAKKGVPDVAQIEYYAMGQYALTKQLTDLKSFGADKLSAQFSPGPWNGVKAGSDGVYALPMDSGPMALFYNKKVFDKYDIKVPTTWAEYLDAARDLHKADPKAYITADNGDAGFATSMLWQAGSRPYTVDGTKVKIDFSDQGAKTFTETWQQLIDEKLLASVPAWTDEWYKGLGDGSIATLATGAWMPANLESGAKSASGDWRVAPMPQWKAGDKVSAENGGSALALPELGKNEALAYAFVEYANAGDGVQTRLKNGAFPATTADLQSTRFQDTAFPYFGGQKANKIFAESAADVPDDWSYLPYQVYANSVFNDTVGKAYVSGTTLAEGLESWQEASVKYDEEQGLPSRRKGIITITTDPNSSSVDKLAAALEHHHHHH | soluble
4 | MSEDLNAGPKVNREFKNSVFTLLFNEVEAIRDIAGAVGAMLGKEINPDTPIKKTTLQNALLGGKLNDLSFVLDDKLIVLIEHQSTINKNMPLRMLHYISEIYNRLYDKKDLYKREKISIPKPVFIVLYNGEEDIKDFEEYLLSDLFKDFDISKEPPCLELRVQVRNINKGHSAEIVKQSPLLRDYVAFVEEVREANREEGASPELAMEKAVENCIKKGILTIFLTRHKEEVIKMLVAEWDYELDLEVAKEEAHEKGLSQGRDEERRKNIKDLYRIGVGIETIAKAFDLSERQVKDILGL | not soluble
5 | MSLFLQPLLAKKIIAEVKKMYEREVIIVNTDGLIMAGTNDERVGQFHEGALICAKERRSVIITKEDETRLKGVKAGINLPVFFDHDVISVFGLTGEPAEIQPFGELLRKMTELFIKESRHLEQSQWRERMLESFMIDWLQLKEWSPSFLEKAQLLGVDLSSRRQMILIQGYEWSPHDIEQMARSWKSSYPADLFIRWGNERILINHEVPQHEQRDRLLRKILHICSFANTASSQYTAAGAGRAVASSSLTDSYEQAEKALAVSLKRKTPIFEEDLKLDMCLTEISPGTRNEFPQRVLGKALEHQELMNTIRTFFHHDLSLKQTAEDMHIHINTLRYRLAKAEQLTGLRFDRTEDVVTMYVALYFLDQDTKEGGSHHHHHH | soluble
6 | MGSDKIHHHHHHMDGSLNGETWRFIVRNIRIGVVEDDPASCQLVLDYLNRYQSETGEQFTVSVFDDGARIVEKYAPVYDILLLDIEMKEIDGMAAARRIRERDDNVVIIFITAAPQYAISGYEVRALSYLLKPLPWFAFSQELKKSIDMVRRNGDDSMLIETGKGQMRMNLTDILYLESIRHTIVIHTLDGKYSINGTLKDMEAKLADRHFFRSNSCYLVNLKHVTGVADQDCIMSDDERLRVSRPRKKAFLAALADYMGGGR | not soluble
7 | AMKPAQKGKTFSNVEIFDPPTNYRDPQVLYARPLELSDGTLLGTWENYSPEPPNVWFPIVKSKDGGKTWKEISKVKDTQNNWGLRYQPQLYELPRAFGKYPKGTVLCSGSSIPSDLSETLIEVYASRDKGYTWEFVSHVALGGEALPNPGLTPVWEPFLMTYKEKLILYYSDQRDNATHSQKLVHQTTTDLKKWSKVVDDTKYADYYARPGMPTVAKLPNNEYIYVYEYGGGPNPPAGSDYWFPVYYRLSKDPQKFLNKAHHQIVSNDGTTPAGSPYVVWTPYGGKNGTIVVSCGTRSEIFTNQALGDASAWKKWDVPQPTAYTRSLLTFQKDPDLLMIMGAGILPPAGGKNTVSASVVRLSEVMKS | soluble
8 | MSLNNKIKPSILPGFMELLPKEQLVFNDIVSKITGVYEQNGFLPMDTPIIEKEEVLLAKSAGETEKQVYRIDNEDRKQVLRFDLTVPFSRFAAQYMSDLTFPFKRYQLGKVYRGERNQKGRYREFYQCDVDVVGNGNLSIKNDAFIINMASKALRKIGLDSYKFQISNRKILTGVLEGLNITNMQEVMILIDKYDKITEEQFLSELNKLIGEEKAKVISKVIKISGSSDEVVENLKKVEIKNEMLEKGIEEVEEVIKYLKLFGVEDSEYAINLKIIRGLDYYTGTVFETLLTGNESYGSICSGGRYDNLAQNYTENVLPGVGMSIGITRLFFVLREIGFIENYNSSLNEKYLIVPIGDTFEYCTKILNKLLVNGKSAEIYFEEGKLKKKLTYANKLDIKYVILIGEDEVTNKELVIKDMITGEQKKLNIEEIEGHHHHHH | soluble
9 | MSKSESPKEPEQLRKLFIGGLSFETTDESLRSHFEQWGTLTDCVVMRDPNTKRSRGFGFVTYATVEEVDAAMNARPHKVDGRVVEPKRAVSREDSQRPGAHLTVKKIFVGGIKEDTEEHHLRDYFEQYGKIEVIEIMTDRGSGKKRGFAFVTFDDHDSVDKIVIQKYHTVNGHNCEVRKALSKQEMASASSSQRGR | soluble
10 | MGSDKIHHHHHHMDAPSRSHLASPILVANYRSLPSFMYRDSLPEAAVSPQLLALNTRLLETLEQDLAWFNSSDALEQLSGKTYYGSNLPFALAYSGHQFGGWSPVLGDGRAHVLGQLKTAADELIDVQLKGSGATPFSRGGDGRATLGAVIREYLLSEAMAGLNISTTGSLAVIATGEDVWRNGAYPGAILVRTAKSHLRVGSFQYAAVHQGPEAVKTLADFALAQYYPELSHDENPYQALLAQVIKGQAELVAQWMLVGFIHGVMNTDNSSITGETIDYGPCAFMDEFNPNKVFSSIDSQGRYAWGNQGAIAQWNMARLGETLLPLLDSDEAKALEIAQAQLGDFNRLFAEHFYQGMARKLSLDASDPELIPFVDSTLQLMTNTRVDFCQFFNALTEYHSTHREQDAGLVALFSTEAFPSLSSTPAQLLQDWLSQWQAKACDSQAALAAMIKANPKFIARNHKVEAAISAAEQNNDYSLFLDMARVLANPYVLAEQDKHYQDAPTPDQRVKQTFCGT | not soluble
11 | MGSDKIHHHHHHMTNKYEEFKTYLKKIGSGEFTGKSLTREETKSALMLMLKEEASAAQIGGFMIAHRIRRPIPEELAGMIDAYIELGPKIQSPSNQRQPIFFGMPFDGRKKTAPIYPLTTLLLLTQKQPVILHGGSRMPVKYGVTHNELFQALGINLTGLSIEQLQSFFNHNYLALIHQPDHFPLAENLIPYRDQIGKRPPLASMELIWTCHQGSHLHISGYVHSPTEERHWKTLELMGEQNVITIKGLEGGIDLSISRSSTIGQYKNQHGTRTVFHPKDYECSGKDIEWSDITEWKKFALQALNGEGPLTKALEWNAGIYFFYAGISSDIKEGINKAKEVINSGFALKQLEKLIHWSDENIDS | not soluble
12 | MSLDDAKLTASKEAKRIVIQSIQRVATETAIENSVTVFHIESDEIKGRIIGREGRNIRALEAATGVEIVVDDTPEAIVLSAFDPVRREIARLALHQLVTDGRIHPARIEEVVSKVRKQVEEEIIETGKRTTIDLGIHGLHPELIRIIGKMKYRSSYGQNLLQHARETANLCAVMASELGLNPKKAKRAGLLHDIGKVPDEEPELPHALLGMKLAEKYKEKPDICNAIGAHHDETEMTSLLAPIVQVCDAISGARPGARREIVEAYIKRLNDLEQLAMAYPGVTKTYAIQAGRELRVIVGADKIDDKQTESLSGEIAKKIQDEMTYPGQVKITVIRETRAVSFAKEGHHHHHH | not soluble
13 | MIPLSIRVPASTANVGPGFDSVGIALSLYLHVVVKEKSDKWQVIHSFEDSIPTDDKNLIVSTACKVCPSLSPHIIEVTSNIPLTRGLGSSASAIVAGIELANQLGKLNLTIDQKVQIATNFEGHPDNVAASILGGTVIGALDGKNVSVVRIESKELGVISLIPNEELNTDESRSVLPDVFPFHEAVKASAISNVLVAALCQKKWKVVGEMMERDHFHEPYRLELVPLLPSIRKCAKEFGAYGTALSGAGPSIFILTPYEKRQEIAEQLARVFTSMKVCELEIDHRGITVNKKEHIGL | not soluble
